These results are taken from PMC3521757, “Spastin's Microtubule-Binding Properties and Comparison to Katanin” (PLoS ONE, 2012).

The target in series [1] is microtubules (native, from pig brain tubulin) (pig) (UniProt P02550). In words: single-molecule TIRF microscopy; microtubules attached to the flow cell by anti-tubulin antibody; 5–10 nM GFP-enzyme in solution; 1 mM AMPPNP; landing rates and dwell times from kymographs; dwell times are lower limits. The following applies: for landing rate: scale: (10 µm)^−1 ·.
The target is the same in series [2]. Description: single-molecule TIRF microscopy; microtubules attached to the flow cell; 10 nM GFP-enzyme; buffer 5 with 300 mM NaCl (ionic strength 0.365 M); 1 mM ATP; mono-exponential lifetime. The following applies: for landing rate: scale: (10 µm)^−1 ·.
Series [3] has the same target. In words: single-molecule TIRF microscopy; microtubules attached to the flow cell; 10 nM GFP-enzyme; buffer 5 with 80 mM NaCl (ionic strength 0.145 M); 1 mM ATP; dwell time is a mean, not an exponential fit. Conditions: for landing rate: scale: (10 µm)^−1 ·.
The target is the same in series [4]. Description: single-molecule TIRF microscopy; microtubules attached to the flow cell by anti-tubulin antibody; 5–10 nM GFP-enzyme in solution; 1 mM ATP-γS; landing rates and dwell times from kymographs. The following applies: for landing rate: scale: (10 µm)^−1 ·.
Series [5] shares this target. In words: single-molecule TIRF microscopy; microtubules attached to the flow cell by anti-tubulin antibody; 5–10 nM GFP-enzyme in solution; 1 mM ATP; landing rates and dwell times from kymographs. Conditions: for landing rate: scale: (10 µm)^−1 ·.
For series [6] the target is unchanged. Description: co-sedimentation; constant microtubule concentration (1 µM for spastin, 2 µM for katanin), increasing enzyme; 1 mM ATP-γS; BRB80, room temperature, 100,000 g; stoichiometry by extrapolation of the saturation curve.
Series [7] shares this target. In words: co-sedimentation; constant microtubule concentration (1 µM for spastin, 2 µM for katanin), increasing enzyme; 1 mM ADP; BRB80, room temperature, 100,000 g; stoichiometry by extrapolation of the saturation curve.
Series [8] shares this target. Description: single-molecule TIRF microscopy; microtubules attached to the flow cell; 10 nM GFP-enzyme; buffer 5 with 160 mM NaCl (ionic strength 0.225 M); 1 mM ATP; mono-exponential lifetime. The following applies: for landing rate: scale: (10 µm)^−1 ·.
For series [9] the target is unchanged. In words: co-sedimentation; fixed E309Q-katanin concentration, variable microtubule concentrations (native or subtilisin-treated, up to 4 µM); 100,000 g, BRB80, room temperature; SDS-PAGE of supernatants and pellets.
Series [10] has as its target subtilisin-treated microtubules (pig) (UniProt P02550). The series is described as above.
The target in series [11] is microtubules (native, from pig brain tubulin) (pig) (UniProt P02550). Description: co-sedimentation; constant microtubule concentration (1 µM for spastin, 2 µM for katanin), increasing enzyme; 1 mM ATP; BRB80, room temperature, 100,000 g; stoichiometry by extrapolation of the saturation curve.
Series [12] has the same target. Description: co-sedimentation; fixed katanin construct concentration (1 µM), increasing microtubule concentrations (0 to 10 µM); band density fitted to a Hill function.
Series [13] concerns the molecule itself. Description: non-reducing SDS-PAGE; coiled coil wild type construct under oxidizing conditions (omission of reducing agents), compared with 1 mM mercapto-ethanol.

Broadly, the stoichiometry N is a count of units in the complex or per binding partner.

Chain of subtilisin-treated microtubules (pig) (P02550 whole entry, chain 1 of 2): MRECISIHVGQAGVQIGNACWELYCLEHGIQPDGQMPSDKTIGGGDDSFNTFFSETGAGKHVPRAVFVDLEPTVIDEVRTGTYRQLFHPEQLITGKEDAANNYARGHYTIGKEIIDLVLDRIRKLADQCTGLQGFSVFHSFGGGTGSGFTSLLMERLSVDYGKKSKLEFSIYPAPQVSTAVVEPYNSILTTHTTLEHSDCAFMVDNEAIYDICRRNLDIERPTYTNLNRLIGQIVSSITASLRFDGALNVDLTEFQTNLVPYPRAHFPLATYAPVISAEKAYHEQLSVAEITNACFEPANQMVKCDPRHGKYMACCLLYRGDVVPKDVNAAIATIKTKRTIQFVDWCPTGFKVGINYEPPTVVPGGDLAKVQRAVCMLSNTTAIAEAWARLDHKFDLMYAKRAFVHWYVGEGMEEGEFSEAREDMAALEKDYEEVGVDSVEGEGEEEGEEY
Chain of subtilisin-treated microtubules (pig) (Q767L7 whole entry, chain 2 of 2, further chain): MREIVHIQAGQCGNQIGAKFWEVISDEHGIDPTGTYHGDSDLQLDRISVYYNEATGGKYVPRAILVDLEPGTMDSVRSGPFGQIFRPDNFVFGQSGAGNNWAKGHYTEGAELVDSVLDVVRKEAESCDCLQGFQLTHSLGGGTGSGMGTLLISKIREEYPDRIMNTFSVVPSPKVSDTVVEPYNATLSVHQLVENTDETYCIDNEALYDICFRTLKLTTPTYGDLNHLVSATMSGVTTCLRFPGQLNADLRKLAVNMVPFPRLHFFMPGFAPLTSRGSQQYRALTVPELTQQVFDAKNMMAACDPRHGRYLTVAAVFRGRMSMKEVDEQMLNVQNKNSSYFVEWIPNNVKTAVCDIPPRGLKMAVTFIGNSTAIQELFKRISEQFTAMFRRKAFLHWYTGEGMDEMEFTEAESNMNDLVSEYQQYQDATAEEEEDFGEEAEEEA

Take “GFP-FLAG HsKatanin (full-length katanin p60) (from UniProt O75449 1-491) (enzyme)”: the dwell time in series [1] was more than 246 s; in series [2], 2.5 s; in series [3] it was 7.3 s; in series [4], 10.1 s; in series [5], 4.02 s; in series [8] it was 5.6 s. Also, the koff/kon is 0.118 10 nM 10 µm in series [1]; 13.6 10 nM 10 µm in [2]; 0.609 10 nM 10 µm in series [3]; 0.684 10 nM 10 µm in [4]; 1.06 10 nM 10 µm in series [5]; 2.82 10 nM 10 µm in series [8]. Further, the landing rate is 2.06 in series [1]; 1.93 in [2]; 15.8 in series [3]; 8.73 in series [4]; 14.1 in series [5]; 4.64 in series [8]. The values for the stoichiometry N (enzyme∶tubulin) in series [6] and in series [7] were 2.8 and 1.1, respectively.

As for “katanin E309Q (Walker B mutant) (from UniProt O75449 1-491) (enzyme)”, the half-maximal saturation (microtubule concentration) in [9] was 0.4 µM. In series [10], this molecule came in with a fold reduction of affinity against native microtubules of more than 10 fold. The fraction bound at 4 µM microtubules in series [10] is less than 0.33. Also, the stoichiometry N (enzyme∶tubulin) in [6] is 2.8; in series [11] it was 3; in [7], 1.1.

For “spastin E442Q mutant (from UniProt Q9UBP0 227-616) (domain or fragment)”, the stoichiometry N (enzyme∶tubulin) is 2.2 in series [6], 2.7 in [11] and 1.3 in series [7].

Take “wild type spastin (co-sedimentation assays) (from UniProt Q9UBP0 227-616) (domain or fragment)”: the stoichiometry N (enzyme∶tubulin) in series [6] is 2.1; in [7], 1.4.

B1: Kat12 (domain or fragment)
chain: MSLLMISENVKLAREYALLGNYDSAMVYYQGVLDQMNKYLYSVKDTYLQQKWQQVWQEINVEAKHVKDIMKTLESFKLDSTPLKAAQHDLPASEGEVWSMPVPVERRPSPGPRKRQSSQYSDPKSHGNRPSTTVRVHRSSAQNVHNDRGKAVRCREKKEQNKGREEKNKSPAAVTEPETNK
Consider B1, for which the half-maximal saturation (microtubule concentration) in [12] was 0.34 µM.

B2: GFP-Δ227 HsSpastin (domain or fragment)
chain: SESGAVPKRKDPLTHTSNSLPRSKTVMKTGSAGLSGHHRAPSYSGLSMVSGVKQGSGPAPTTHKGTPKTNRTNKPSTPTTATRKKKDLKNFRNVDSNLANLIMNEIVDNGTAVKFDDIAGQDLAKQALQEIVILPSLRPELFTGLRAPARGLLLFGPPGNGKTMLAKAVAAESNATFFNISAASLTSKYVGEGEKLVRALFAVARELQPSIIFIDEVDSLLCERREGEHDASRRLKTEFLIEFDGVQSAGDDRVLVMGATNRPQELDEAVLRRFIKRVYVSLPNEETRLLLLKNLLCKQGSPLTQKELAQLARMTDGYSGSDLTALAKDAALGPIRELKPEQVKNMSASEMRNIRLSDFTESLKKIKRSVSPQTLEAYIRWNKDFGDTTV
For the molecule B2, the dwell time in [1] was more than 254 s; in [2] it was 4.2 s; in series [3], 9.6 s; in series [4] it was 55.7 s; in series [5], 10.1 s; in series [8], 6.4 s. Moreover, the landing rate in series [1] was 13.4; in series [2], 1.61; in [3], 24.2; in [4] it was 21.2; in [5], 22.7; in [8], 4.07.

B3: coiled-coil-Δ227 HsSpastin construct (wild type) (other)
chain: AEECKRRYEKEKEKNARLKGKVEKLEIELARWRASESGAVPKRKDPLTHTSNSLPRSKTVMKTGSAGLSGHHRAPSYSGLSMVSGVKQGSGPAPTTHKGTPKTNRTNKPSTPTTATRKKKDLKNFRNVDSNLANLIMNEIVDNGTAVKFDDIAGQDLAKQALQEIVILPSLRPELFTGLRAPARGLLLFGPPGNGKTMLAKAVAAESNATFFNISAASLTSKYVGEGEKLVRALFAVARELQPSIIFIDEVDSLLCERREGEHDASRRLKTEFLIEFDGVQSAGDDRVLVMGATNRPQELDEAVLRRFIKRVYVSLPNEETRLLLLKNLLCKQGSPLTQKELAQLARMTDGYSGSDLTALAKDAALGPIRELKPEQVKNMSASEMRNIRLSDFTESLKKIKRSVSPQTLEAYIRWNKDFGDTTV
modifications: disulphide bridge between the cysteines introduced in the coiled coil domain (oxidizing conditions)
B3: in [13], the “stoichiometry N” value worked out at 2.

B4: Kat2 (domain or fragment)
chain: WQEINVEAKHVKDIMKTLESFKLDSTPLKAAQHDLPASEGEVWSMPVPVERRPSPGPRKRQSSQYSDPKSHGNRPSTTVRVHRSSAQNVHNDRGKAVRCREKKEQNKGREEKNKSPAAVTEPETNK
In series [12], B4 returned a half-maximal saturation (microtubule concentration) of 0.4 µM.
